Data set [1] deals with the molecule itself. The experiment in a line: AUC; sedimentation velocity analytical ultracentrifugation at 4 °C.
The next data set addresses T1, pro-interleukin-1β (UniProt P01584 1-269).
T1 construct: pro-interleukin-1β (uncleaved precursor of IL-1β); Printed mass 31.9 kDa; The FLAG tag is named for the co-immunoprecipitation; also called pro-IL-1β; FLAG-tagged pro-IL-1β; source: purified
The experiment in a line: SPR; TRIM20Δ413 and pro-IL-1β; heterogeneous ligand model; apparent dissociation constants; immobilised partner not told in the text shown. Particulars: both partners purified. (In general: SPR reads the build-up and loss of mass on a sensor chip optically.)

From publication PMC4455283, “Crystal structure of TRIM20 C-terminal coiled-coil/B30.2 fragment: implications for the recognition of higher order oligomers” (Scientific Reports, 2015) come the findings set out here.

The stoichiometry N is the number of molecules, sites or subunits per partner or assembly.

B1: TRIM20Δ413 (TRIM20 coiled-coil/B30.2 fragment) (domain or fragment, human, UniProt O15553 414-781, looked up)
chain: EVALEHKKKIQKQLEHLKKLRKSGEEQRSYGEEKAVSFLKQTEALKQRVQRKLEQVYYFLEQQEHFFVASLEDVGQMVGQIRKAYDTRVSQDIALLDALIGELEAKECQSEWELLQDIGDILHRAKTVPVPEKWTTPQEIKQKIQLLHQKSEFVEKSTKYFSETLRSEMEMFNVPELIGAQAHAVNVILDAETAYPNLIFSDDLKSVRLGNKWERLPDGPQRFDSCIIVLGSPSFLSGRRYWEVEVGDKTAWILGACKTSISRKGNMTLSPENGYWVVIMMKENEYQASSVPPTRLLIKEPPKRVGIFVDYRVGSISFYNVTARSHIYTFASCSFSGPLQPIFSPGTRDGGKNTAPLTICPVGGQGPD
notes: TRIM20 (pyrin, marenostrin), human, UniProt O15553; construct starting with E414, comprising the CHS (coiled-coil, E414-N586) and B30.2 (E589-G776) domains; Calculated monomer mass printed as 42 737 Da (85.7 kDa dimer); also called CHS-B30.2; TRIM20 C-terminal coiled-coil/B30.2 fragment; source: purified
With B1, the “stoichiometry N” value in data set [1] amounted to 2. Moreover, in the data set with pro-interleukin-1β, the “apparent KD, heterogeneous ligand model, first constant” value amounted to 0.7 µM and the “apparent KD, heterogeneous ligand model, second constant” value turned out to be 13.7 µM.
